Source: article PMC12341890, “Insights into plastocyanin–cytochrome b6f complex formation: The role of plastocyanin phosphorylation” (Plant Physiology, 2025)

Tests used:
[1] = molecular target: cytochrome f (Cytf, PetA), His-tagged, in the isolated cytochrome b6f complex (C. reinhardtii) (UniProt P23577)
[2] = molecular target: T1, cytochrome f (Cytf, PetA), His-tagged, in the isolated cytochrome b6f complex (C. reinhardtii, UniProt P23577 32-317); assay: cross-linking; PC (100 µM) preactivated with 5 mM EDC and 10 mM NHS, pH 6.5 (MOPS), 20 min at room temperature; 5 mM ferricyanide added and cross-linker removed; added to isolated Cytb6f (2.7 µM) pre-reduced with 5 mM ascorbate; HEPES 30 mM pH 7.5, MgCl2, tPCCαM; 45 min at room temperature; read by SDS-PAGE (Coomassie, anti-Cytf blot) and by trypsin digestion with LC-MS/MS (MaxQuant and xiSEARCH); conditions: both partners purified
T1 construct: cytochrome f (PetA) of C. reinhardtii, UniProt P23577; numbers count on: the mature protein (Y32 of P23577 = Y1); Stood in every assay as a subunit of the whole isolated Cytb6f complex, not as an isolated protein; Carries heme f; also called Cytb6f (as the subunit cross-linked); source: C. reinhardtii strain expressing His-tagged PetA; Cytb6f complex purified (tPCCαM solubilisation, NiNTA, …)
T1 sequence (P23577 32-317, one chain of several): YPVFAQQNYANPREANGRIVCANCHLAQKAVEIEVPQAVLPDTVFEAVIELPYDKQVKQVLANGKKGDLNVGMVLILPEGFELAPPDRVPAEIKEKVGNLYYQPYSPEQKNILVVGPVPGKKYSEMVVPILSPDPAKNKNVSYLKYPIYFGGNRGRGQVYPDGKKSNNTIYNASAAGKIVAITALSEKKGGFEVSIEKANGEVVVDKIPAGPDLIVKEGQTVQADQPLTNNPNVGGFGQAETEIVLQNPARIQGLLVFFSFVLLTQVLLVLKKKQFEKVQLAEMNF

cytochrome f (Cytf, PetA), His-tagged, in the isolated cytochrome b6f complex (C. reinhardtii), sequence (P23577 32-317, one chain of several): as above

Row | half-time of Cytf oxidation in the light (absorbance at 554 nm), isolated Cytb6f and PSI, 1 to 3 µM PC, 5 µM FDX [1] | binding result [2] | Binder
1 | 120 ms | – | plastocyanin (PC) S49D, recombinant phosphomimetic variant (natural protein) DATVKLGADSGALEFVPKTLTIKSGETVNFVNNAGFPHNIVFDEDAIPDGVNADAISRDDYLNAPGETYSVKLTAAGEYGYYCEPHQGAGMVGKIIVQ
2 | – | binds | plastocyanin (PC) S49K, recombinant (natural protein, C. reinhardtii, plastocyanin of C. reinhardtii, UniProt P18068, with a point mutation S49K that adds a trypsin site; numbers count on: the mature protein (D48 of P18068 = D1); S49 is S96 in P18068 by the printed offset; Made from the WT Pet17b-PETE plasmid; the methods list codons only for S-to-A, S-to-E and S-to-D; also called mutated S49K PC; source: E. coli, recombinant (as the wild type PC)) DATVKLGADSGALEFVPKTLTIKSGETVNFVNNAGFPHNIVFDEDAIPKGVNADAISRDDYLNAPGETYSVKLTAAGEYGYYCEPHQGAGMVGKIIVQ
